US20170355775A1 (ELANCO TIERGESUNDHEIT, published 2017)
Numbering of substitutions follows the chain as printed.

T1: canine CD20 ECD2 peptide (canine)
T1 peptide: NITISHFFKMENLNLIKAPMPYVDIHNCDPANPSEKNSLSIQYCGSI

B1: chimeric anti-canine CD20 antibody 1E4-cIgGB (antibody, V domains shown)
VH: EVQLVESGGGLVKPGGSLKLSCAASGFTFSDYGMLWVRQAPEKGLEWIAYISSGSSTIYYADRVKGRFTISRDNAKNTLFLQMTSLRSEDTAMYYCSTGTFAYWGQGTPVTVSS
VL: DVVMTQNPLSLPVSLGDQASISCRSSQSLIYNNGNTYLHWYRQKPGQSPKLLIYKVSNRFSGVPDRFSGSGSGTDFTLKISRVEAEDLGVYFCSQSTHVPFTFGSGTKLEIKR
notes: also called unmodified (WT) 1E4-cIgGB; 1E4-cIGB
B2: 1E4-cIgGB with G34 to R substitution in VL (antibody, V domains shown)
VH: B1 VH
VL: B1 VL with G34R
notes: Whole antibody (heavy plus light chains) made 'using the above procedures'
B3: 1E4-cIgGB with N33 to E substitution in VL (antibody, V domains shown)
VH: B1 VH
VL: B1 VL with N33E
notes: as for B2
B4: 1E4-cIgGB with G34 to H substitution in VL (antibody, V domains shown)
VH: B1 VH
VL: B1 VL with G34H
notes: as for B2
B5: 1E4-cIgGB with N33 to A substitution in VL (antibody, V domains shown)
VH: B1 VH
VL: B1 VL with N33A
notes: as for B2
B6: 1E4-cIgGB with G34 to P substitution in VL (antibody, V domains shown)
VH: B1 VH
VL: B1 VL with G34P
notes: as for B2
B7: 1E4-cIgGB with G34 to E substitution in VL (antibody, V domains shown)
VH: B1 VH
VL: B1 VL with G34E
notes: as for B2
B8: 1E4-cIgGB with N33 to P substitution in VL (antibody, V domains shown)
VH: B1 VH
VL: B1 VL with N33P
notes: as for B2
B9: 1E4-cIgGB with G34 to Y substitution in VL (antibody, V domains shown)
VH: B1 VH
VL: B1 VL with G34Y
notes: as for B2
B10: 1E4-cIgGB with G34 to I substitution in VL (antibody, V domains shown)
VH: B1 VH
VL: B1 VL with G34I
notes: as for B2
B11: 1E4-cIgGB with N33 to I substitution in VL (antibody, V domains shown)
VH: B1 VH
VL: B1 VL with N33I
notes: as for B2
B12: 1E4-cIgGB with N33 to H substitution in VL (antibody, V domains shown)
VH: B1 VH
VL: B1 VL with N33H
notes: as for B2
B13: 1E4-cIgGB with G34 to V substitution in VL (antibody, V domains shown)
VH: B1 VH
VL: B1 VL with G34V
notes: as for B2
B14: 1E4-cIgGB with N33 to F substitution in VL (antibody, V domains shown)
VH: B1 VH
VL: B1 VL with N33F
notes: as for B2
B15: 1E4-cIgGB with N33 to L substitution in VL (antibody, V domains shown)
VH: B1 VH
VL: B1 VL with N33L
notes: as for B2
B16: 1E4-cIgGB with G34 to L substitution in VL (antibody, V domains shown)
VH: B1 VH
VL: B1 VL with G34L
notes: as for B2
B17: 1E4-cIgGB with G34 to F substitution in VL (antibody, V domains shown)
VH: B1 VH
VL: B1 VL with G34F
notes: as for B2
B18: 1E4-cIgGB with N33 to Q substitution in VL (antibody, V domains shown)
VH: B1 VH
VL: B1 VL with N33Q
notes: as for B2

Molecular target: T1, canine CD20 ECD2 peptide
Test: ELISA on canine CD20 ECD2 peptide

binding result | Binder
binds | B1
binds | B2
binds | B3
binds | B4
binds | B5
binds | B6
binds | B7
binds | B8
binds | B9
binds | B10
binds | B11
binds | B12
binds | B13
binds | B14
binds | B15
binds | B16
binds | B17
binds | B18
